This passage reports amyloid nucleation score results from the supplement of paper PMC12042874.

± gives the uncertainty stated by the source.

The data set can be described thus: amyloid nucleation score (Sup35N fusion, yeast selection) (log enrichment); library NNK2; higher = more nucleation; inactive = no reads after selection. An outline of the steps: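 The nucleation score is a DiMSum log enrichment of output over input reads, centred on the mode score of non-aggregating sequences. Sequences under 100 input reads were excluded, and reads came from Illumina sequencing of plasmid inserts. Psi-negative yeast expressing Sup35N fused to peptides of 20 random codons were induced with 100 μM copper sulfate for 24 hours and grown 7 days at 30°C on medium lacking adenine and uracil. Random libraries had three technical output replicates.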

Turning to EEVVVVWFIRDKDLALKLVV, the amyloid nucleation score result is “inactive”. Next, GVLDRFPDESNILGVSFSCL: -0.575 ± 0.26; DRRRK: 1.43 ± 0.23. The result for FKFGPMDSIKYMSANFISQC reads -0.189 ± 0.64; that for CAKCVMCSNCPKNSGRILYR, -1.12 ± 1.1; that for VHDRLRLGWGAYGYPFGVLM, 0.027 ± 1. For the substance IFHSESALWRHRYMGYVMVR, the amyloid nucleation score was -0.66 ± 0.45. In turn, YSGTWLMVHKNLMVRKKLVP displayed an amyloid nucleation score of 0.499 ± 0.38. Next, THIFVWNHFNLLRYTTKFLP: -0.304 ± 0.4. Turning to ALLVILLDCLQFIYMTELNC, the amyloid nucleation score was -0.032 ± 1.1. As for LKRYKVRQFSTCLWAGAYSQ, the amyloid nucleation score was 0.407 ± 0.23. Next, FSRQISNGFIRGLFL: “inactive”; FIRWSLWR: -0.012 ± 1.1. With FCVISKGRHVSMRTTSGFLE, the amyloid nucleation score was -0.834 ± 0.54.

The substance CHNYELCCRLFNSFSTNQIA displayed an amyloid nucleation score of -0.468 ± 0.29. The substance FVDDLARGLLVKRECSWQMQ registered an amyloid nucleation score of 0.523 ± 0.33. Next, HVAQTS: 1.04 ± 0.4.

For the substance YLFFKFWNAVCDLIHNTNLY, the amyloid nucleation score result was “inactive”.

LWGYCTMLSEGH yielded an amyloid nucleation score of -0.018 ± 0.2. The result for WALTHVSLYRFGER reads 4.32 ± 0.093; that for ARLSWWGS, -0.184 ± 0.29. The result for FFYSVRVRPALIIC reads “inactive”. The result for IFEVRLPQELSSYSHFGGGC reads 0.706 ± 0.74; that for LINWVVVLYG, 1.9 ± 0.14. In the case of DHFGGCYMSATRSWHDFKMG, the amyloid nucleation score entry was “inactive”. Next, SQVGTW: 0.795 ± 0.41; GIFSCRLCSMLIELLMLRIM: -0.505 ± 1.1. Turning to LSTSWQRLVTILPLEWYHS, the amyloid nucleation score worked out at 0.052 ± 0.26. The result for GVWYFANFFVVMRAVGCDVG reads 0.484 ± 0.36; that for IFMAKFSEIPTGPVIIMFYL, “inactive”; that for VGMTTSWMVDPHGGRPGYHS, 2.01 ± 0.16. Next, QGRRISKLC: -1.39 ± 1; LRTIHYPC: “inactive”. Take GKDGRVFGSEAYWMEGKRKW: the amyloid nucleation score was 0.235 ± 0.8.

Take TLNTNMRSLLRI: the amyloid nucleation score result was “inactive”. As for LLDWTLLSNST, the amyloid nucleation score entry was “inactive”. Next, IALFVGFLVDAKDEGIL: -0.419 ± 0.26; LQSCAGTFTCDCVVGRNYGR: 0.31 ± 0.23. The result for TIPVRPTMEYCTQLLTLLQ reads 0.293 ± 0.47; that for SKTMSKMNKDQLQHSMLHDP, -0.453 ± 0.45; that for LDWHAEHKGSCSFPDNEMLS, 0.394 ± 0.56.

Regarding QIACDCNLGGKWFTDMCYFA, the amyloid nucleation score was -0.94 ± 0.55.

Consider NYAPGFTWFSMTNKKDFNVS, for which the amyloid nucleation score entry was “inactive”.

In the case of VGINLSSATGMFEGKIQDNA, the amyloid nucleation score was -0.757 ± 0.37. For HIVRNYFTLTSCAHTIHFAD, the amyloid nucleation score is -0.861 ± 1. As to IVCDWRTP, the amyloid nucleation score came out at 0.614 ± 0.41. For LLTTEQ, the amyloid nucleation score is 1.29 ± 0.43.

On to DRRELRHDDAVVAYIDVVIE, for which the amyloid nucleation score is 1.05 ± 0.28. In turn, LHDLDWYSGILIQFDSDMRW came in with an amyloid nucleation score of 1.37 ± 0.15. The result for SWAQRCDGGMYMRDCWLMGS reads 0.361 ± 0.33; that for VFHRVEYSWGFRFYCCCLMC, 3.91 ± 0.059.

As to SRVWFVNPAPYPADTSELAK, the amyloid nucleation score was 0.509 ± 0.8. Consider VTEHRNHIKTWTTQSSLCDW, for which the amyloid nucleation score turned out to be 0.124 ± 0.37. The result for SRIFVRYTLAKLVDFSCPES reads 0.61 ± 0.46; that for MCNFRSWGALLNKRAHGVGS, 0.307 ± 0.65.

For the substance VGYFLKAMETCVTSLL, the amyloid nucleation score result is “inactive”. The result for LHHFSVTYNSITFCLNFPFR reads 4.11 ± 0.065. The result for LADQSYKPAWLFPGSTSVLV reads 0.078 ± 0.74; that for TLSTGIFLLHLAYSSLSIDS, 0.637 ± 0.35. The result for NRCRNNGQLRGQCICGSVCL reads -0.284 ± 0.39.

Turning to LLALTFSTETQGRHTKCHSL, the amyloid nucleation score stood at 4.07 ± 0.094. The result for VERFWLIWSRAYYFDFRVRE reads 0.098 ± 0.79.

As for MYLLFGSLTVYRIHYSVSNT, the amyloid nucleation score was -1.14 ± 1.1. Next, KSASCKPIMSYPKVLPS: 0.208 ± 0.8. Next, IEMHDINYNP: -0.596 ± 0.29. The result for GRGYAAVLNWRLFDKDRGRI reads 0.035 ± 0.28; that for LTSISYIIGDRWSIEVGRVF, -0.337 ± 1.1; that for RSITGCDWFLH, 0.063 ± 1.1. NDGMSSIRWGMTPHYVSSGD returned an amyloid nucleation score of 0.698 ± 0.14. Next, WVYNLALCNSRVIKG: -0.51 ± 0.48; KLGCYVS: 3.23 ± 0.088; MFYASFGVKL: 0.655 ± 0.65.

The substance DCDVSVNSVYITVKSAICAV gave an amyloid nucleation score of 0.767 ± 0.66.

Take AFHWMF: the amyloid nucleation score worked out at 0.544 ± 0.28.

The substance SRTWAARNFLFRWVSPANFT gave an amyloid nucleation score of 0.119 ± 0.74. Next, KWVVKMDVGCVPSQTRRGSW: 1.05 ± 0.4; STMSFFSIGKLPEIVVGDSY: -1.24 ± 0.75; VYNSGWQVGWAKGLWSSLYN: -0.409 ± 0.34. The result for YCDVWGRRCCDANYMERTAS reads 1.35 ± 0.38; that for IIVIRD, 0.005 ± 0.36; that for KSRNYIFSGYELVASPSSVK, “inactive”. The result for SNRRKSAGDSFVRWMCCLT reads 2.61 ± 0.15. For SSFYTSGYPQNVSARGLGAE, the amyloid nucleation score worked out at 0.627 ± 0.56. The result for ISMTTVDPQMEEFGLRHVGV reads 0.831 ± 0.31; that for YYMKFEAILKDQWSTVYN, “inactive”.

In the case of FTLFVRHPGIVALERNFMVR, the amyloid nucleation score is -0.062 ± 0.35. Next, GLKDAIMYSVVTLIRYRQDD: -0.809 ± 0.56. Next, IVFYFVFRILSYGGSTIPVG: -1.15 ± 0.64; GSPSRRGTVYRVWRVRWCNG: 0.307 ± 0.64. The result for LSGLIGG reads -0.135 ± 0.55; that for SLADDSGNRT, -0.289 ± 0.43.

For the substance YNYPSVNIRLKIDLAGSLGC, the amyloid nucleation score is 2.65 ± 0.097.

In the case of YFNGL, the amyloid nucleation score result was “inactive”. The result for SLSYATTFF reads 0.476 ± 0.24; that for VATLMIKFR, 4.116 ± 0.036; that for RWLPSVID, -0.302 ± 0.61. Next, FFFVPSFDTLEHTLRVGLLR: “inactive”; LKHKHRNMRITCSASI: -0.269 ± 0.25; YVGGTVGV: -0.807 ± 0.64. Next, SLSRNGTVFARFRVSTSRCL: 4.23 ± 0.057; QQGYVTLSNFCGRA: -0.292 ± 0.5; PKSHFSRFGYYKVFQRSGRS: -0.92 ± 1.1. On to VKWLYTLDSNFVLVFVPCLT, for which the amyloid nucleation score is -0.078 ± 0.39.
